Source: PMC6332680

Columns and labels:
[1] = biological target: E. coli ribose-phosphate pyrophosphokinase (EcKPRS) (E. coli (strain K12)); assay: SEC; size exclusion chromatography, data not shown
[2] = biological target: E. coli ribose-phosphate pyrophosphokinase (EcKPRS) (E. coli (strain K12)); assay: crystal structure; 2.22 Å, space group C222_(1), three molecules in the asymmetric unit; hexamer from 3 molecules of the asymmetric unit and 3 symmetry related molecules; crystallised with 0.2 M magnesium chloride, 0.1 M HEPES pH 7.5, 30% PEG 400, 1 mM ADP, 291 K

Substance “E. coli ribose-phosphate pyrophosphokinase (EcKPRS) (enzyme)” has a stoichiometry N [1] of 6 and a stoichiometry N [2] of 6.
